± gives the standard deviation of the averaged measurements.
B1: library; a variant is named by its letters at N, in order (parent)
chain: GCUGUCACCGGUGCUUGGUACGUUAUAUUCAGCCGGUCUGAUGAGUCUNNNNNNAGACGAAACAGC

Columns and labels:
[1] = variants of: B1; assay: FACS-Seq fitted mean relative fluorescence mCherry/BFP without ligand (log10 relative fluorescence); HEK293T overexpressing SLC46A1; higher = higher reporter protein expression; conditions: without (6R,S)-folinic acid; ligand present: no
Outline: (§1)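 Fluorescence is reported as a normalized fitted mean of sorted-bin read counts. Lentivirally transduced HEK293T libraries (mCherry ribozyme-switch reporter, EF1α-BFP marker) were enriched, treated with or without ligand for 48 h, and sorted into 6 mCherry/BFP bins for MiSeq sequencing of PCR-amplified genomic DNA. The normal fit was on log10(mCherry/BFP), scaled to five spiked-in control ribozymes.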

[2] = variants of: B1; assay: normalized RNA/DNA level without ligand (relative to sTRSVctl = 100) (log10 (% of sTRSVctl)); HEK293T overexpressing SLC46A1; higher = less ribozyme self-cleavage, higher mRNA level; conditions: without (6R,S)-folinic acid; ligand present: no
Outline: (§2)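 HEK293T cells received ligand, where used, 1 h before being transfected with 4 µg per 6-well well of library plasmids encoding reporter-linked ribozyme switches. After 72 h, RNA was extracted with EDTA and sequenced. RNA level was derived from RNA reads per DNA read, normalized to a spiked-in non-cleaving sequence or the top sequences, then scaled and log-transformed. Values were ×100 then log10, the top set was 25 sequences, and the minimum was 100 DNA reads.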

[3] = variants of: B1; assay: FACS-Seq fitted mean relative fluorescence mCherry/BFP with ligand (log10 relative fluorescence); HEK293T overexpressing SLC46A1; ligand concentration (+) FACS-Seq: 6 mM; higher = higher reporter protein expression; conditions: with (6R,S)-folinic acid; ligand present: yes
Outline: as §1

[4] = variants of: B1; assay: normalized RNA/DNA level with ligand (relative to sTRSVctl = 100) (log10 (% of sTRSVctl)); HEK293T overexpressing SLC46A1; ligand concentration (+) RNA-Seq: 6 mM; higher = less ribozyme self-cleavage, higher mRNA level; conditions: with (6R,S)-folinic acid; ligand present: yes
Outline: as §2

Variant | FACS-Seq fitted mean (log10) [1] | normalized RNA/DNA level without ligand (log10) [2] | FACS-Seq fitted mean (log10) [3] | normalized RNA/DNA level with ligand (log10) [4]
GCUGUCACCGGUGCUUGGUACGUUAUAUUCAGCCGGUCUGAUGAGUCUGGUGCAAGACGAAACAGC [GGUGCA] | 0.256 ± 0.027 | 2.037 ± 0.017 | 0.204 ± 0.17 | 2.04 ± 0.032
GCUGUCACCGGUGCUUGGUACGUUAUAUUCAGCCGGUCUGAUGAGUCUGGUGCUAGACGAAACAGC [GGUGCU] | -0.205 ± 0.13 | 2.005 ± 0.017 | 0.149 ± 0.25 | 2.01 ± 0.046
GCUGUCACCGGUGCUUGGUACGUUAUAUUCAGCCGGUCUGAUGAGUCUUGUGCUAGACGAAACAGC [UGUGCU] | 0.259 ± 0.17 | 2.024 ± 0.011 | 0.414 ± 0.076 | 2.07 ± 0.03
GCUGUCACCGGUGCUUGGUACGUUAUAUUCAGCCGGUCUGAUGAGUCUUGUGCGAGACGAAACAGC [UGUGCG] | 0.0533 ± 0.02 | 1.657 ± 0.011 | 0.442 ± 0.14 | 1.96 ± 0.05
GCUGUCACCGGUGCUUGGUACGUUAUAUUCAGCCGGUCUGAUGAGUCUUGUGAAAGACGAAACAGC [UGUGAA] | 0.186 ± 0.034 | 1.899 ± 0.015 | 0.243 ± 0.25 | 1.984 ± 0.012
GCUGUCACCGGUGCUUGGUACGUUAUAUUCAGCCGGUCUGAUGAGUCUUGUGAGAGACGAAACAGC [UGUGAG] | 0.269 ± 0.082 | 1.6 ± 0.0064 | 0.649 ± 0.03 | 1.906 ± 0.0071
GCUGUCACCGGUGCUUGGUACGUUAUAUUCAGCCGGUCUGAUGAGUCUCGUCUCAGACGAAACAGC [CGUCUC] | 0.692 ± 0.063 | 2.06 ± 0.013 | 0.48 ± 0.48 | 1.996 ± 0.015
GCUGUCACCGGUGCUUGGUACGUUAUAUUCAGCCGGUCUGAUGAGUCUAGUGGAAGACGAAACAGC [AGUGGA] | 0.399 ± 0.14 | 1.963 ± 0.018 | 0.327 ± 0.082 | 2.015 ± 0.0071
GCUGUCACCGGUGCUUGGUACGUUAUAUUCAGCCGGUCUGAUGAGUCUAGUGAUAGACGAAACAGC [AGUGAU] | 0.213 ± 0.04 | 1.972 ± 0.016 | 0.178 ± 0.14 | 1.996 ± 0.0024
GCUGUCACCGGUGCUUGGUACGUUAUAUUCAGCCGGUCUGAUGAGUCUCGUGGAAGACGAAACAGC [CGUGGA] | 0.378 ± 0.16 | 1.988 ± 0.014 | 0.668 ± 0.33 | 2.02 ± 0.043
GCUGUCACCGGUGCUUGGUACGUUAUAUUCAGCCGGUCUGAUGAGUCUGGUGGAAGACGAAACAGC [GGUGGA] | 0.534 ± 0.074 | 2.054 ± 0.01 | 0.58 ± 0.079 | 2.06 ± 0.062
GCUGUCACCGGUGCUUGGUACGUUAUAUUCAGCCGGUCUGAUGAGUCUUGUCUGAGACGAAACAGC [UGUCUG] | 0.171 ± 0.096 | 1.73 ± 0.02 | 0.451 ± 0.14 | 1.96 ± 0.047
GCUGUCACCGGUGCUUGGUACGUUAUAUUCAGCCGGUCUGAUGAGUCUUGUGUAAGACGAAACAGC [UGUGUA] | 0.429 ± 0.1 | 1.895 ± 0.0065 | 0.399 ± 0.015 | 2.01 ± 0.021
GCUGUCACCGGUGCUUGGUACGUUAUAUUCAGCCGGUCUGAUGAGUCUUGUGUGAGACGAAACAGC [UGUGUG] | 0.164 ± 0.26 | 1.591 ± 0.003 | 0.393 ± 0.24 | 1.94 ± 0.062
GCUGUCACCGGUGCUUGGUACGUUAUAUUCAGCCGGUCUGAUGAGUCUCGUGAAAGACGAAACAGC [CGUGAA] | 0.328 ± 0.19 | 1.9509 ± 0.0012 | 0.192 ± 0.33 | 2.01 ± 0.028
GCUGUCACCGGUGCUUGGUACGUUAUAUUCAGCCGGUCUGAUGAGUCUCGUGACAGACGAAACAGC [CGUGAC] | 0.241 ± 0.037 | 2.015 ± 0.01 | 0.201 ± 0.09 | 1.99 ± 0.052
GCUGUCACCGGUGCUUGGUACGUUAUAUUCAGCCGGUCUGAUGAGUCUUGUGGAAGACGAAACAGC [UGUGGA] | -0.112 ± 0.058 | 1.816 ± 0.0017 | 0.123 ± 0.11 | 2 ± 0.027
GCUGUCACCGGUGCUUGGUACGUUAUAUUCAGCCGGUCUGAUGAGUCUUGUGGGAGACGAAACAGC [UGUGGG] | 0.109 ± 0.02 | 1.6031 ± 0.0006 | 0.695 ± 0.086 | 1.96 ± 0.017
GCUGUCACCGGUGCUUGGUACGUUAUAUUCAGCCGGUCUGAUGAGUCUUGUGGUAGACGAAACAGC [UGUGGU] | 0.0696 ± 0.063 | 1.89 ± 0.022 | 0.265 ± 0.0042 | 2 ± 0.054
GCUGUCACCGGUGCUUGGUACGUUAUAUUCAGCCGGUCUGAUGAGUCUGGUGAUAGACGAAACAGC [GGUGAU] | 0.294 ± 0.15 | 2.015 ± 0.013 | 0.491 ± 0.23 | 2.028 ± 0.018
GCUGUCACCGGUGCUUGGUACGUUAUAUUCAGCCGGUCUGAUGAGUCUGGUGACAGACGAAACAGC [GGUGAC] | 0.359 ± 0.087 | 2.027 ± 0.008 | 0.217 ± 0.074 | 2.01 ± 0.037
